Assay [1] deals with T1, WT-CHIPS (CHIPS 1-121), CHemotaxis Inhibitory Protein from Staphylococcus aureus (Staphylococcus aureus (strain Newman), UniProt A6QIG7 29-149).
T1 construct: mature
Put plainly: flow cytometry, 3 ug/ml CHIPS-FITC on HEK-293 cells expressing FLAG-tagged C5aR (pcDNA3.1). For orientation: Flow cytometry measures light scatter and fluorescence of single cells or particles in a stream.

Assay [2] addresses T1, WT-CHIPS (CHIPS 1-121), CHemotaxis …. Put plainly: flow cytometry, 3 ug/ml CHIPS-FITC on HEK-293 cells displaying the C5aR N-terminus (pDISPLAY).

B1: FLAG-tagged complete human C5aR expressed on HEK293 cells (pcDNA3.1) (receptor)
chain: MDYKDDDDKNSFNYTTPDYGHYDDKDTLDLNTPVDKTSNTLRVPDILALVIFAVVFLVGVLGNALVVWVTAFEAKRTINAIWFLNLAVADFLSCLALPILFTSIVQHHHWPFGGAACSILPSLILLNMYASILLLATISADRFLLVFKPIWCQNFRGAGLAWIACAVAWGLALLLTIPSFLYRVVREEYFPPKVLCGVDYSHDKRRERAVAIVRLVLGFLWPLLTLTICYTFILLRTWSRRATRSTKTLKVVVAVVASFFIFWLPYQVTGIMMSFLEPSSPTFLLLNKLDSLCVSFAYINCCINPIIYVVAGQGFQGRLRKSLPSLLRNVLTEESVVRESKSFTRSTVDTMAQKTQAV
notes: also called whole C5aR; complete C5aR
Turning to B1, in assay [1], the binding result is “binds”.

B2: C5aR N-terminus (first 38 amino acids of the human C5aR) displayed on HEK293 cells with the pDISPLAY vector (receptor)
chain: MNSFNYTTPDYGHYDDKDTLDLNTPVDKTSNTLRVPDI
notes: domain: transmembrane domain; also called C5aR N-terminal protein; pDISPLAY C5aR N-terminal protein
Take B2: the binding result in assay [2] is “binds”.

The values are drawn from patent US20080233137A1 (published 2008).
